Substitutions are numbered along the chain they refer to. Names may count otherwise.
Assays:
[1] = target: T1, human FcγRIIIaV extracellular domain with C-terminal His-tag (human, UniProt P08637 17-208); test: SPR, KD(SG1)/KD(variant)
T1 construct: also called human FcgRIIIaV
T1 sequence (P08637 17-208 F176V): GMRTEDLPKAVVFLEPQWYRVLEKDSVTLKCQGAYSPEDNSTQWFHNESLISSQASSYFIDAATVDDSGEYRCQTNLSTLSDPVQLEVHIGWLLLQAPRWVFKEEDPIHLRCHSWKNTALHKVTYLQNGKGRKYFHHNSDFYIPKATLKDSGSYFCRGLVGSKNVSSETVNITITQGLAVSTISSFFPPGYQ

[2] = target: T2, human FcγRIIb extracellular domain with C-terminal His-tag (human, UniProt P31994 43-217); test: SPR, KD(SG1)/KD(variant)
T2 construct: also called human FcgRIIb
T2 sequence: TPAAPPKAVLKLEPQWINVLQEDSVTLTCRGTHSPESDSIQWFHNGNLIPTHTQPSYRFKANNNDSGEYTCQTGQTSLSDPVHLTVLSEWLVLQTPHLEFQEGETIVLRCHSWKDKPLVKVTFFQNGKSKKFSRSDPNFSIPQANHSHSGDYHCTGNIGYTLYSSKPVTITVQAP

[3] = target: T3, human FcγRIIaR extracellular domain with C-terminal His-tag (human, UniProt P12318 34-217); test: SPR (Biacore), antibody captured, FcgR as analyte
T3 construct: also called human FcgRIIaR; FcγRIIa (type R)
T3 chain: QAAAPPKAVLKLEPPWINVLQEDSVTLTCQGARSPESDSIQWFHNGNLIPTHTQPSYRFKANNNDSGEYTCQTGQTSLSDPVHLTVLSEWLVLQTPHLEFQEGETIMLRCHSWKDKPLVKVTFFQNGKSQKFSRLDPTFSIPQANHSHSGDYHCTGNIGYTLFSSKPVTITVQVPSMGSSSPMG

[4] = target: T4, human FcγRIIaH extracellular domain with C-terminal His-tag (human, UniProt P12318 34-217); test: SPR (Biacore), antibody captured, FcgR as analyte
T4 construct: also called human FcgRIIaH; FcγRIIa (type H)
T4 sequence: T3 chain with R134H

[5] = target: T5, cynomolgus monkey FcγRIIIaS extracellular domain with C-terminal His-tag (cynomolgus monkey, UniProt Q8SPW2 21-206 at identity 1.00)); test: SPR (Biacore), KD of SG1 divided by KD of variant
T5 construct: also called cyno FcgRIIIaS; cynoFcγRIIIaS
T5 chain: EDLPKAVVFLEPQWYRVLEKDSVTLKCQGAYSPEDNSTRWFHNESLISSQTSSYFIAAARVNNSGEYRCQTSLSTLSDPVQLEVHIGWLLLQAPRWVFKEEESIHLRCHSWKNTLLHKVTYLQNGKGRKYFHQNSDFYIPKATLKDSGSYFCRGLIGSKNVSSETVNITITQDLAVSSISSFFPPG

[6] = target: T6, human FcγRIIaR extracellular domain with C-terminal His-tag (human, UniProt P12318 34-217); test: SPR, KD(SG1)/KD(variant)
T6 construct: also called human FcgRIIaR; FcγRIIa (type R)
T6 chain: T3 chain

[7] = target: T7, cynomolgus monkey FcγRIIIaS extracellular domain with C-terminal His-tag (cynomolgus monkey, UniProt Q8SPW2 21-206 at identity 1.00)); test: SPR, KD(SG1)/KD(variant)
T7 construct: also called cyno FcgRIIIaS; cynoFcγRIIIaS
T7 chain: T5 chain

[8] = target: T8, cynomolgus monkey FcγRIIb extracellular domain with C-terminal His-tag (cynomolgus monkey); test: SPR, KD(SG1)/KD(variant)
T8 construct: also called cyno FcgRIIb; cynoFcγRIIb
T8 chain: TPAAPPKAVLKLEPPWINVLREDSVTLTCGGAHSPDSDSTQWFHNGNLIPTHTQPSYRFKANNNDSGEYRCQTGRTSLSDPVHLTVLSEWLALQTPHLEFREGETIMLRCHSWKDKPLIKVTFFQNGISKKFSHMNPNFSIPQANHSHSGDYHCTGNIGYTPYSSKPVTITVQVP

[9] = target: T9, cynomolgus monkey FcγRIIa1 extracellular domain with C-terminal His-tag (cynomolgus monkey); test: SPR (Biacore), antibody captured, FcgR as analyte
T9 construct: also called cyno FcgRIIa1; cynoFcγRIIa1
T9 chain: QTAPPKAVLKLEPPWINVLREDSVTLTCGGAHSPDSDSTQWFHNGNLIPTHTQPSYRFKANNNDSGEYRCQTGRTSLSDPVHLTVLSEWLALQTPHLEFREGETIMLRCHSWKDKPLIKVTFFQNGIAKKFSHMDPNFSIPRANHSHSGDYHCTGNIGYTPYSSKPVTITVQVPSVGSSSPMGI

[10] = target: T10, human FcγRIIb extracellular domain with C-terminal His-tag (human, UniProt P31994 43-217); test: SPR (Biacore), KD of SG1 divided by KD of variant
T10 construct: also called human FcgRIIb
T10 sequence: T2 sequence

[11] = target: T9, cynomolgus monkey FcγRIIa1 …; test: SPR (Biacore), KD of SG1 divided by KD of variant
[12] = target: T3, human FcγRIIaR extracellular domain …; test: SPR (Biacore), KD of SG1 divided by KD of variant
[13] = target: T11, human FcγRIIIaV extracellular domain with C-terminal His-tag (human, UniProt P08637 17-208); test: SPR (Biacore), KD of SG1 divided by KD of variant
T11 construct: also called human FcgRIIIaV
T11 sequence (P08637 17-208 F176V): as the sequence (P08637 17-208 F176V) above

[14] = target: T12, cynomolgus monkey FcγRIIa3 extracellular domain with C-terminal His-tag (cynomolgus monkey); test: SPR (Biacore), KD of SG1 divided by KD of variant
T12 construct: also called cyno FcgRIIa3; cynoFcγRIIa3
T12 chain: T9 chain with P95T, T121A, A128S, H133P, D135N

[15] = target: T13, cynomolgus monkey FcγRIIb extracellular domain with C-terminal His-tag (cynomolgus monkey); test: SPR (Biacore), KD of SG1 divided by KD of variant
T13 construct: also called cyno FcgRIIb; cynoFcγRIIb
T13 chain: T8 chain

B1: M103205H795-MY531/M103202L889-SK1 (antibody, human IgG1, kappa, name in EU numbering)
heavy: QVTLKESGPVLVKPTETLTLTCTVSGIDLSHDDISWVRQAPGKGLEWVGIISYAGSTYYASWAKGRLTISKDTSKNQVVLTMTNMDPVDTATYYCARGVPAYSHGGDLWGQGTLVTVSSASTKGPSVFPLAPSSKSTSGGTAALGCLVKDYFPEPVTVSWNSGALTSGVHTFPAVLQSSGLYSLSSVVTVPSSSLGTQTYICNVNHKPSNTKVDKKVEPKSCDKTHTCPPCPAPEWLTGPSVFLFPPKPKDTLMISRTPEVTCVVVDVSDEDPEVKFNWYVDGVEVHNAKTKPREEQYNSTYRVVSVLTVLHQDWLNGKEYKCKVSNTALPKPIEKTISKAKGQPREPQVYTLPPSREEMTKNQVSLTCLVKGFYPSDIAVEWESNGQPENNYKTTPPVLDSDGSFFLYSKLTVDKSRWQQGNVFSCSVMHEALHNHYTQKSLSLSP
light: DIVMTQSPATLSLSPGERATLSCTSSQSVYHANWLSWFQQKPGQPPKLLIYWASTLAYGVPSRFSGSGSGTDFTLTISSLQPEDAATYYCAGGYGGGRYAFGQGTKVEIKRTVAAPSVFIFPPSDEQLKSGTASVVCLLNNFYPREAKVQWKVDNALQSGNSQESVTEQDSKDSTYSLSSTLTLSKADYEKHKVYACEVTHQGLSSPVTKSFNRGEC
notes: copies: 2 + 2
[1]
  KD fold (SG1 = 1): 0.28 fold
[2]
  KD fold (SG1 = 1): 3.1 fold

B2: M103205H795-MY528 / M103202L889-SK1 (antibody, human IgG1, kappa, name in EU numbering)
heavy: B1 heavy with T328K
light: B1 light
[3]
  Kd: 560 nM
[4]
  Kd: 350 nM
[5]
  KD fold (SG1 = 1): 0.18 fold

B3: M103205H795-MY534/M103202L889-SK1 (antibody, human IgG1, kappa, name in EU numbering)
heavy: B1 heavy with W236L, S241V, Q297L, T328K
light: B1 light
notes: copies: 2 + 2
[1]
  KD fold (SG1 = 1): 0.15 fold
[6]
  KD fold (SG1 = 1): 5.8 fold
[7]
  KD fold (SG1 = 1): 0.22 fold

B4: M103205H795-MY533/M103202L889-SK1 (antibody, human IgG1, kappa, name in EU numbering)
heavy: B1 heavy with S241V, Q297L, T328K
light: B1 light
notes: copies: 2 + 2
[8]
  KD fold (SG1 = 1): 7.7 fold
[7]
  KD fold (SG1 = 1): 0.33 fold
[2]
  KD fold (SG1 = 1): 4.8 fold

B5: M103205H795-MY530 / M103202L889-SK1 (antibody, human IgG1, kappa, name in EU numbering)
heavy: B1 heavy with W236L
light: B1 light
[9]
  Kd: 1300 nM
[10]
  KD fold (SG1 = 1): 2.9 fold
[11]
  KD fold (SG1 = 1): 2.5 fold

B6: M103205H795-MY520 / M103202L889-SK1 (antibody, human IgG1, kappa, name in EU numbering)
heavy: B1 heavy with P234D, W236L, S241V, Q297L, T328K
light: B1 light
[12]
  KD fold (SG1 = 1): 3.2 fold
[10]
  KD fold (SG1 = 1): 3.3 fold
[13]
  KD fold (SG1 = 1): 0.23 fold
[14]
  KD fold (SG1 = 1): 8.1 fold

B7: M103205H795-MY537/M103202L889-SK1 (antibody, human IgG1, kappa, name in EU numbering)
heavy: B1 heavy with A233G, S241V, Q297L, T328K
light: B1 light
notes: copies: 2 + 2
[8]
  KD fold (SG1 = 1): 5.6 fold
[7]
  KD fold (SG1 = 1): 0.24 fold

B8: M103205H795-MY514 / M103202L889-SK1 (antibody)
heavy: B1 heavy with W236L, S241V, S300L, T328K
light: B1 light
notes: 'S258L' copied as printed, probably S298L
[5]
  KD fold (SG1 = 1): 0.05 fold
[12]
  KD fold (SG1 = 1): 6.9 fold
[15]
  KD fold (SG1 = 1): 2.6 fold
[13]
  KD fold (SG1 = 1): 0.09 fold

B9: M103205H795-MY532/M103202L889-SK1 (antibody, human IgG1, kappa, name in EU numbering)
heavy: B1 heavy with S241V, T328K
light: B1 light
notes: copies: 2 + 2
[1]
  KD fold (SG1 = 1): 0.48 fold
[6]
  KD fold (SG1 = 1): 5.8 fold

Source: US20250076311A1 (Chugai, published 2025)
